This note sets out measurements from the DeepSol protein solubility set.

The data set in a line: soluble on expression in E. coli; label from the status in PepcDB or PDB records.
“MNSSKAGGCHGINDIKVKTAKPKDKPYKLADGGGMYLLINTNGSKYWRMKYRFAGKEKMLSIGVYPDVTLADAREKRSEARKLLAAGGDPGEAKKEEKIAQQMSLKNTFEAIAREWHQLKADRWSLRYRDEIIDTFEKDIFPYIGKRPIAEIKPMKLLEALRKMEKRGALEKMRKVRQRCGEVFRYAIVTGRADYNPAPDLASALATPKKVHFPFLTANELPHFLNDLAGYTGSIITKTATQIIMLTGVRTQELRFARWEDIDFETKLWEIPAEVMKMKRPHIVPLSEQVIMLFKQLEPISKHHPLVFIGRNDPRKPISKESINQVIELLGYKGRLTGHGFRHTMSTILHEQGFNSAWIEMQLAHVDKNSIRGTYNHALYLDGRREMMQWYADYIDSLSSRES”: the “soluble on expression in E. coli” value is “not soluble”.
Next, “VTSPNSTAPTPSLITAPPPSTTEDLRLALRAATLYYLDGMTQAEVATRLGVSRPTAGRLVARARAQGLVRIEVQAPAHLRDALRSDEERALEEKYGLVEAVVVADSVDAAGAIDDHNSFAGVGRAAASLLVRRIREGDTLGFTWGPETVAVAQGLPSGAATCASVVQLDGSVSAINYQTGTEYVLGRCAEQLQANTVRLPVPLYADASTVVSMRGDSVISKALEAGRTAEMMMFGTGAVSTSTTLFEGSFIDTDMLSVLTGLGAVGEVGGRFYRLDGTEVAGPLDERAMSVPLDDIRACEGSILVTGGVAKHQAALGALHGGLAKMLVCDIECARWLLDQ”: “not soluble”.
Next, “AGALWEIEKELFTKLPAPSSAINSHLQPAKPKVPQKKPSKWDPPAEFKVDLSTAVSYNDIGDINWKNLQQFKGIERSEKGTEGLFFVETESGVFIVKRSTNIESETFCSLLCMRLGLHAPKVRVVSSNSEEGTNMLECLAAIDKSFRVITTLANQANILLMELVRGITLNKLTTTSAPEVLTKSTMQQLGSLMALDVIVNNSDRLPIAWTNEGNLDNIMLSERGATVVPIDSKIIPLDASHPHGERVRELLRTLIAHPGHESSQFHSIRDIITLYTGYDVGTEGSISMQEGFLATVRECASFDLDAFERELLSWQESLQKCHNLSISPQAIPFILRMLRIFH”: “soluble”; “MGSDKIHHHHHHMAMNDNNINTCRYRVDVPYPPVRVVGPNPVYACEMLGNMGDAVSEMSDVTRYFYISVVTKPQYSWISACFRDISIVEMHHLNIFAELALLLGADPRLWSCRDCMQWWSPSYIGYPHGVRPLIAESIQAEEAAIRKYSHQADTICDMNIVAILRRIIQDEMYHLQIFREMYQQV”: “not soluble”.
Next, “MSRFFHAKEDSDSDTSSSEDEVEDQKVNKSAKFRDDLDFMAGPEEDEKRVVRAQKDKKFDELKGIIKQNRDAKSNKDLNRLLTGFDSLAKAYDKSKTVFQRQNVANPRFYIRSLVEIEDYVNKLWDDKDAKSALSKNNAKALPPLRQKLKKYIKDQQLQDLVTDYRVNPDEDGYETPEDEDDDDFGEVSESKAEKSPGKPSEKAAVSDSDSDSDDDDSSNWSSEPESNSSDDEDSVTKMEQLRRYFLKKEFRVESKDDKKEKKKRVIRVKEAVEEDDDADWTPVNREKSVVHFDPKEEVTHDVMIKKLNEVMSARGKRTTDRNQHVANLRKLLEVSEEKELGLGINVKISFCIISALFELNAKISDHMEYETFMTTLQTVNSLLDLLIGTDRVKLSVTYAEEDENLKDDTQEYRIQGSILIAVQRLDGELAKILQNADCHSNDYIEKLKAEKDMCSLIEKAEKYVELRNDSGIFDKHEVCKVYMMRIEHAYYKYQDQNEEDAGKLMDYLCNKIYTLDDEKRLRQRAMLCHVYYLAVHDKWHRARDLLLMSHMQAIVDHSDVDTQILYNRTICQLGLCAFRHGFIREAHQGLSEIQNTQRAKELLAQAVGTRQHEKTAEQEKIDRSRQVPYHMHINVELMECVYLICSMLLEIPHMASCEFEMRRRMLSRSFHYQLKQSEKASLTGPPENTREHVVAASKAMLNGDWKKCQDYIVNDKMNQKVWNLFHNAETVKGMVVRRIQEESLRTYLLTYSTVYATVSLKKLADLFELSKKDVHSIISKMIIQEELSATLDEPTDCLIMHRVEPSRLQMLALNLSDKLQTLAENNEQILEPRTGRGGYQGPGSWFPGRNERQGDKQKGSGGYQGERRGGQGQDGKRGNWGSQGGQQRRHPQKPRAF”: “not soluble”; “MEAYNVQNLYQCLNCDDYHLCNGSLNCDPLVDREGIVCTVTGKYIQCNVRELEHHHHHH”: “soluble”.
“MSLPSAQAPSLLNPTDDFAALGNIAWLWMNSPMHRDWPVHLLARNTLAPIQLGQYILLRCNDVPVAYCSWALMDADTELSYVMAPSSLGGNAWNCGDRLWIIDWIAPFSRDDNRALRRALAERHPDSVGRSLRVRRGGDTARVKEYRGRALDAAAARAQLDRYHAELIAGLRASNGGYAPREGHHHHHH”: the “soluble on expression in E. coli” value is listed as “not soluble”.
Next, “MGSDKIHHHHHHMKIQSLFFTLYGDYVKDSGGTISSKSLIVIFKEFGFSEGAIRAGLHRMKKAGLIVGIKGENRKVSYKLSEKGMLRLLEGTRRVYEKVRRRWDNKWRIVVYNIPENNRELRDKLRRELKWLGFGMLAQSTWISPNPIEDTLKNFINDHYGSSNGIQVDIFVANYLGEPKGLVEKCWNLSEVEQAYRAFLEKWTGVLEKVSSLKSNEAFVTRILLVHEYRKFLNIDPDLPEDLLPPNWIGYTAYDLFMKLREELTPKANEFFYKVYEP”: “not soluble”; “MGHHHHHHMPVVDSDGDAVQLNLGGNYPLYTIQSAAIGFRGGLSTLRKDACKSYVYEAPETDRGLPVGFSASATSQPVMQLGSRYKFSFSMPVPLICDTAWSIGKSETNGGISFQPITAGDYFYLNNFSWFEARSTEETGVYKLAACSCEFCKIACPEVGSFNVNGRTLLGIGGEHFTVQFQKFD”: “soluble”.
Turning to “MGSDKIHHHHHHMINLSKKLIRQVAQANAKFGLIKDGDRVLLGLSGGKDSLALAHLLNRMQAHAPFKFELEAVTLSYGMGEDYSHLHAHCEEHGIKHSVLDSNIYEVSGDTIRENSSFCSYFSRMRRGALYTYALEKGFNKLAIAHHLDDAAESFFMNFIHNGALRTLAPIYQSKRGITVIRPLIFVRERQLRDNATQNELSVIGNEFCPGMKLSEKNVKFPHAREEAKQLLANLEKDHPKLFTSLKTAFANLHTESFWLQKA”, the “soluble on expression in E. coli” value is “not soluble”.
Next, “MSLIFSKIRGNFQDLKDGKISVKQGLITKSDAIELFNIKNWKDYLKLFSIASEVRDFFKNEIEITSTVHVTNICSVTPKCAYCGFAAGTSSEGYVEPFRSNDEQIKSSAAAVENSGIKRVSCSSGHGYSGKEVIRALKAVKSASNLEVLVNAGADITEDCISELKKYNIDTICCNLETTNKSVFNKVKPGENLDDRISVCKMVKKHGIELSSGLLIGIGESYEDRAEHLFFLKELDVEEIPVMGFNPYKDTPMEQCPKCSAIEQAKTIAIARLLFPNIRITSPTPTMGPELAQFALLGGASNIATVIPDNHPMNIKGVGNPKTGNLNDVICMMKELGLTPKLNEGHHHHHH”: “soluble”.
Next, “MAPKQPEKIENPPMASAPSSEKESGSTENEYGSSGEETNSSDDEHEEARDNVISTPLSFGQELVSFFKVENLTYLGIDEAKWIAYWDMVKDGPKKREVEKQLKKMLAMQMELFMMRTGFTKEVATVLFKQDNASSSGK”: “not soluble”.
For “MKKLLFFLFTLVVLASGCGKKNTFTLEGSIKGLPSDTILVFYQEPDYKLDTILLSKGKFTYTITPDTFTIFSLLLGEKQILPIYADKGESVTLNGMVGKIEVKGKGENAQLAKHIQYLSTLENNKAAVMTAVDSLIKTNPSSYSNIYLIDKYYVQDSLPDYNHIDQLIKGLSGIIKDTPYIIELQNKLSEKKELTEHRYVSNISCTDKKGKTVNWNSVKGKYVLLDFWASWNKESIATQDSLVSVQKALKKDKFVIISLSLDLDKKEWMEKIIQRDTTQWKQVCDFKGWNNSIVKQQGITRIPANILIGPDKRVITQDIRGKELIDKVRQLTEQDKEKEKAAKEAERARKRQNKK”, the “soluble on expression in E. coli” value is listed as “not soluble”.
“MGHHHHHHSHGRLTLSAQHISHRPCLLSYSLLFWKVHHLFLEGFPCSPRLDEMSFHQFPQHPVHVSVVHLPIVYKGSMTQVSPH”: the “soluble on expression in E. coli” value is “not soluble”.
Next, “MQLNSSSFHPHHFTCDTTRYSEEQVACICEALSNDARKLSQFVWTVLERDEMRNNQYILKAQAFLAFHSNNFKELYRIIESHHFASEHHLPLQEWWLNAHYHEAEKIRGRQLGAVGKYRIRRKYPLPRTIWDGEETSYCFRDKSRVLLRDWYCRNSYPSPREKRELAEKTHLTVTQVSNWFKNRRQRDRAGVPEPKDCLKDISEEEDLKLIRKTASKLSNSFHNPSDLSSYSAAAAAATFPGFYMNYNDMMIGAGTSYQSL”: “not soluble”; “MGSDKIHHHHHHMFWKKDPTVSWERKNINDIDFSRFNVAIIGGTGGLGRAISRELAQRNARVTVVGQTFRDEDLKDKINFVKADLSLVSECKRISHSDEIPYEELTHLIFTTGIFASRQRQATSEGLEKDMAVSYLSRYIIFHDVAKRLGISRTKKDDLPKVFIAGFPGNGQVGDPDDLNSDEKKYSAYATHMNTVAANESLVIDAKDRYTNIDTFGLNPGLIKTNIRNNLLGSDTYLSRITEWIISWTCQSAETYAKTICTLIASPAIESRSGTMFSNKGDAILPSPGLTKDVVEKFMENSELLVEKALRNQSPFTSSNE”: “not soluble”.
In the case of “MIEKDVVQILKAVSEFYPGRFQPDDLKGTVKAWHRVLAEYELEEIMNNLTDYAKVNKFPPTVSDLLKAQSEQRDRFIPSYEETQRILKEQAEAEEAARNDPDLQAAQEENMRKIREMLGINRGGAR”, the “soluble on expression in E. coli” value is listed as “soluble”.
Next, “MAHHHHHHMGSTGRKAVDEINHWIAYIDCALSHPHPLPKGKHVFRSDLSTVPEVRDIYDCLYKLYAEESASASFREPVNALELGVFNYYEVVTEPMSLRTVLDRIAEGGHYSQASQVLADVEKIWSNCEKYNGADSALVKEAKKCQGILTRLRERLAEEQPAPNAELDKIISAFESADESVLGELEAYFRREDPSLIISNGDVDLTALRVKHLKAMKAILERAMNGGGGRG”: “not soluble”.
Next, “SFDRALKPFLKSCHFQTLRDPVDQCVSYHLRSVTEKFPEVHMEVIADYEVHPNRRPKILAQTAAHVAGAAYYYQRQDVDADPWGTQHIAGVCIHPRFGGWFAIRGVMLLPGIEVPNLPPRKPPDCVPTRAGRITLLEGFNFHWRDWTYRDAVTPEERYSEEQKIYFSTPPAQRLALLGLAQPSEHPSTTSELPLSLLTKPQNSRRARSWLSPSVSPPVSPGP”: “soluble”; “MLPQHDFIFFFFAFSILSPSPPPLSSFSSPPPPSFSFFIASTSFFSSQPPSHPRVKKCIDTHTTPSTLTFFSAHHPLASPKIHYEVVLYYSFFFKFRLRLLLVSVAHQLLE”: “not soluble”; “MDYKTCPFHLVFLYSINPREPRLRKKIYYMMETESRLVVSHALIMYDYNQEGELPRMHGGYLKRFAKRATKRPDPFFQPTQIHDIDNDVSDMSECEKECPFAVPAQAADDGSLYLQLLDMEFWNDRNRQLHFLVNKPSLIESLGCLNNRVPALPPATTGKAAFVFFIDGLEVDARNLTCDGLVPWSENTSTNPHGITKRPKSAKQALALNREGQLRIWKTPSSHRSDLIEFQLHVYTATLPRCPRLRKKVTYVLKNGHQIGNAMIIYWYTEPGEMPAPVNVSTMSSAQEYSLQRLPPHIREDVLRLLARMTPAEVAKVILEKYGIQVNTKMLYYVRRREIMAATDGIRDAEDDHDPYELKNEMIVSAAAGDFVDDWTTDTAGASAEASEGGSRKKNVHLEEMLDERELQVSHTEEIQQPSSSQQQIQLPYRKAKYQEPKNFGQQSSGLPLSQSGMARGTSRNEALFRIAKNSFGSATDNETFDLLFKMLFEKSEHRLLQIVNHTFGVEIMAGEEMDNGEMHLHMAPDGAIVEEIVEEEVIGTVGDDVNLEEEVHENEPKVYTGEKQINDVLEQVVVEEPNHHDDHPPHELLEEDALVNPDDVIVDPNQLIIHDDDDQRQQNIQ”: “not soluble”.
